Experimental data published in patent US7901879B2, “Lactoferrin in the treatment of malignant neoplasms and other hyperproliferative diseases” (Agennix Incorporated, priority 2002, dated 2011).

How the values were obtained:
IL-18 = IL-18 levels in small intestine and serum after oral rhLF or bLF (cytokine ELISA); type: in vivo, mice; conditions: for IL-18 Intestinal Extract / IL-18 Serum: 24 h after last dose
Protocol: Recombinant human lactoferrin and bovine lactoferrin were orally administered to mice, and the production of IL-18 in the small intestine was measured.
Mice were treated for three days daily with 65 mg/kg/day of rhLF, 300 mg/kg/day of rhLF or 300 mg/kg/day of bLF. For a control, mice were only administered the pharmaceutical carrier. Twenty-four hours following administration of the LF or control for 3 days, animals were weighed and blood and serum were collected. Serum was used for cytokine ELISA assays.
Also, at these time points, animals were sacrificed and the small intestinal tissue was removed for further analysis. Small intestinal epithelium was homogenized using a lysis buffer consisting of PBS, 1% Nonidet P-40, 0.5% sodium deoxycholate, and 0.1% sodium dodecyl sulphate containing 10 μg/ml PhenylMetheylsulfonyl fluoride. Homogenate was centrifuged at 15,000 rpm for 10 minutes and the supernatant stored at −80 C. till it was tested for IL-18 levels.

[1] = tested on: murine squamous carcinoma cell line (SCCVII); test: SCCVII tumor growth, oral rhLF and/or radiotherapy (Example 9); type: in vivo, immunocompetent C3H mice
Protocol: A murine squamous carcinoma cell line (SCCVII) was injected into the floor of mouth through the neck skin of immunocompetent C3H mice (Day 0). […] Tumors were measured in three dimensions with calipers.
Tumor-bearing mice were randomized into six groups receiving rhLF (200 mg/Kg) and/or radiotherapy as described below. RhLF (4 mg; 200 mg/kg) was administered by oral gavage once daily for 8 days on days 5 through 12. Radiotherapy was administered as single dose of 2 Gray given at the beginning (day 5) or at during (day 8) rhLF-therapy. Animals were sacrificed on day 14 post-treatment and the residual tumor masses were measured and processed for later additional analyses.

[2] = oral 65 mg/kg rhLF versus 300 mg/kg bLF
[3] = oral 65 mg/kg/day for three days
[4] = oral 300 mg/kg rhLF versus 300 mg/kg bLF
[5] = oral 300 mg/kg/day for three days
[6] = oral, rhLF at both doses, bLF 300 mg/kg/day

B1: Recombinant human lactoferrin (protein, UniProt P02788 20-710, looked up)
Lactotransferrin: GRRRSVQWCAVSQPEATKCFQWQRNMRKVRGPPVSCIKRDSPIQCIQAIAENRADAVTLDGGFIYEAGLAPYKLRPVAAEVYGTERQPRTHYYAVAVVKKGGSFQLNELQGLKSCHTGLRRTAGWNVPIGTLRPFLNWTGPPEPIEAAVARFFSASCVPGADKGQFPNLCRLCAGTGENKCAFSSQEPYFSYSGAFKCLRDGAGDVAFIRESTVFEDLSDEAERDEYELLCPDNTRKPVDKFKDCHLARVPSHAVVARSVNGKEDAIWNLLRQAQEKFGKDKSPKFQLFGSPSGQKDLLFKDSAIGFSRVPPRIDSGLYLGSGYFTAIQNLRKSEEEVAARRARVVWCAVGEQELRKCNQWSGLSEGSVTCSSASTTEDCIALVLKGEADAMSLDGGYVYTAGKCGLVPVLAENYKSQQSSDPDPNCVDRPVEGYLAVAVVRRSDTSLTWNSVKGKKSCHTAVDRTAGWNIPMGLLFNQTGSCKFDEYFSQSCAPGSDPRSNLCALCIGDEQGENKCVPNSNERYYGYTGAFRCLAENAGDVAFVKDVTVLQNTDGNNNEAWAKDLKLADFALLCLDGKRKPVTEARSCHLAMAPNHAVVSRMDKVERLKQVLLHQQAKFGRNGSDCPDKFCLFQSETKNLLFNDNTECLARLHGKTTYEKYLGPQYVAGITNLKKCSTSPLLEACEFLRK
notes: human lactoferrin produced recombinantly
**Q.** B1 was tested. Which “IL-18 Intestinal Extract % Increase Over Control” value (IL-18; oral 65 mg/kg) did it give?
**A.** Its value is 725%.

**Q.** What about the “IL-18 Serum % Increase Over Control” value (IL-18; oral 65 mg/kg) of the same molecule?
**A.** Its value is 84%.

**Q.** What about the “IL-18 Intestinal Extract % Increase Over Blf” value (IL-18; [2]) of the same molecule?
**A.** Its value is 75%.

**Q.** And the “IL-18 Serum % Increase Over Blf” value (IL-18; [2])?
**A.** The value was 94%.

**Q.** And the “IL-18 Intestinal Extract” value (IL-18; [3])?
**A.** The value was 7,879 pg.

**Q.** What about the “IL-18 Serum” value (IL-18; [3]) of the same molecule?
**A.** Its value is 259 pg.

**Q.** And the “IL-18 Intestinal Extract % Increase Over Control” value (IL-18; oral 300 mg/kg)?
**A.** Its value is 775%.

**Q.** What about the “IL-18 Serum % Increase Over Control” value (IL-18; oral 300 mg/kg) of the same molecule?
**A.** Its value is 132%.

**Q.** What about the “IL-18 Intestinal Extract % Increase Over Blf” value (IL-18; [4]) of the same molecule?
**A.** The value was 85%.

**Q.** What about the “IL-18 Serum % Increase Over Blf” value (IL-18; [4]) of the same molecule?
**A.** The value was 145%.

**Q.** And the “IL-18 Intestinal Extract” value (IL-18; [5])?
**A.** The value was 8,350 pg.

**Q.** What about the “IL-18 Serum” value (IL-18; [5]) of the same molecule?
**A.** Its value is 328 pg.

**Q.** What about the “effect on amount of IL-18 in the intestinal extract” value (IL-18; [6]) of the same molecule?
**A.** Its value is “significantly enhanced”.

**Q.** And the “effect on amount of IL-18 in the serum” value (IL-18; [6])?
**A.** The value was “significantly enhanced”.

**Q.** And the “Inhibition Relative to Placebo” value ([1]; both rhLF/Rad groups pooled (D/F))?
**A.** Its value is 67%.

**Q.** What about the “Inhibition Relative to Placebo” value ([1]; rhLF 200 mg/kg oral days 5-12 plus radiation 2 Gray on day 5) of the same molecule?
**A.** The value was 68%.

**Q.** And the “Inhibition Relative to Placebo” value ([1]; rhLF 200 mg/kg oral days 5-12 plus radiation 2 Gray on day 8)?
**A.** The value was 66%.

**Q.** What about the “Inhibition Relative to Placebo” value ([1]; rhLF alone 200 mg/kg oral once daily days 5-12) of the same molecule?
**A.** Its value is 54%.

**Q.** What about the “increase in TGI over monotherapy with rhLF” value ([1]; rhLF plus radiation, P<0.05) of the same molecule?
**A.** Its value is 28%.

**Q.** What about the “increase in TGI over monotherapy with radiation” value ([1]; rhLF plus radiation, P=0.1207) of the same molecule?
**A.** Its value is 15%.
